Test results taken from US20250296984A1, “THERAPEUTIC AND DIAGNOSTIC AGENTS AND USES THEREOF” (priority 2022, published 2025).

Tests used:
[1] = tested on: HCMV infected human lung tissue; assay: Immunohistochemistry (IHC) on HCMV infected human lung tissue and controls; settings: HCMV positive control slide, FIG. 12
Method: (§1) Cytomegalovirus (CMV) control slides containing CMV positive lung tissue and CMV negative myometrium (product number #3240A) were obtained from Newcomer Supply Inc., Middleton, WI 53562-2579, USA. Tissue micro-arrays (TMAs) were obtained from US Biomax Inc., Derwood, MD 20855, USA, and included tumor tissues #BR1008b, #BS17016c, #BCN721b and normal tissues #FDA662a and heart tissues #HEN241a.
(§2) The paraffin sections were sequentially immersed into a. 100% xylene three times (5 min each); b. 100% ethanol twice (2 min each); c. 95% ethanol twice (2 min each). The slides were rinsed twice in water for 5 min to remove ethanol. […], the slides were immersed in 3% H2O2 for 5 minutes and washed thereafter twice (2×) with distilled water. The slides were then immersed in the working citrate buffer (pH 6.0) and covered with a lid. The buffer was heated in the microwave until it had boiled, and then kept in the steamer for 15 min.
The sections were cooled at room temperature for 30 min and washed with PBS. 5% BSA blocking solution was then added to the HIER treated samples and they were incubated at 37° C. for 30 min. […] Digitized pictures were taken by Olympus VS120 scanner and analyzed by using OlyVia 3.2 software (Olympus Corporation, 20101 Tokyo, Japan) by senior Pathologist.

breast cancer tissues = assay: IHC in a breast cancer cohort (primary tumors, metastases, NAT); set-up: species or system human
Excerpt: FIG. 13. The HCMV US28 expression was studied by immunohistochemistry (IHC) and in situ hybridisation (ISH) in a breast cancer cohort. […] Most tumor cells in this sample stained positively for the US28-13-5G6-1D3 rAb (brown colour). […] C. […] The arrows point out some positive HCMV DNA signals in the figure. […] A colour version of FIG. 13 is provided on the page after the non-colour version.
FIG. 14. […] B. Most cancer cells in the same sample were negative for the MAB810R staining. C. […] The arrows point out such positive HCMV DNA signals. The HCMV DNA was not seen in the cytoplasm of the tumor cells. D. The negative control anti-IgG Ab staining for the same sample was negative. A colour version of FIG. 14 is also provided.
FIG. 15. The US28 staining and HCMV ISH were negative in many normal adjacent tumor (NAT) breast tissues as exemplified in the figure with the sample BR1008b_J6. […] C. […] D. The IgG staining was also negative. […] Thus, the samples are exposed to exactly the same staining conditions and antibody/DNA probe concentrations. […] A colour version of FIG. 15 is also provided.
FIG. 16. A. The IHC staining of the primary breast cancer samples with US28-13-5G6-1D3 rAb were specific and positive in ˜73% of the 41 studied primary breast tumor samples. […]

[2] = tested on: human cancer tissues and adjacent normal tissues; assay: Immunohistochemistry (IHC) on human cancer tissue micro-arrays
Method: as §1, §2
The sections were cooled at room temperature for 30 min and washed with PBS. 5% BSA blocking solution was then added to the HIER treated samples and they were incubated at 37° C. for 30 min. The primary antibody was diluted according to the best results from the dilution gradient tests and added to the samples for incubation overnight at 4° C. or 37° C. for 1 h. The slides were then washed three times in PBS on the shaker. The secondary antibodies were used in 1:200 dilution, added to the samples and incubated at 37° C. for 30 min. The slides were washed three times (5 min each) in PBS on the shaker. Strept-Avidin Biotin Complex (SABC) HRP- or AP-conjugated reagents were added, and the samples were incubated in dark at room temperature. The samples were thereafter washed in distilled water, counter stained by hematoxylin, and then dehydrated through gradient ethanol from 70% to 100%, and cleared by 3 times in xylene, 5 min each. Slides were mounted by ACRYMOUNT (StatLab, MicKinney, TX 75069, USA) and cover-slipped. Digitized pictures were taken by Olympus VS120 scanner and analyzed by using OlyVia 3.2 software (Olympus Corporation, 20101 Tokyo, Japan) by senior Pathologist.
We thereafter studied the binding of US28-13-5G6-1D3 rAb to human cancer tissues by using IHC and confirmatory ISH analyses. The results were evaluated by a Senior Pathologist. We found specific staining of the US28-13-5G6-1D3 rAb on several cancer types. Among these were glioblastomas (e.g. glioblastoma grade 4), colonic cancer, rectum cancer, breast cancer (e.g. locally advanced breast cancer and its metastasis), oesophagus cancer, gastric/stomach cancer, pancreas cancer, liver cancer such as hepatocellular carcinoma, lung cancer, malignant pheochromocytoma and cervical cancer, showing for the first time a potential universal role of US28 in pathology of cancer. The staining intensity of different cancer cells were classified as negative=0, weakly positive=1+, moderately positive=2+ or strongly positive=3+. […] In the majority of tumors with a positive US28-13-5G6-1D3 rAb staining, the staining was generally positive in large parts of the tumor cells. The tumor positivity was confirmed by positive finding of HCMV DNA in nucleus of the tumor cells by using ISH. […] The IgG control Ab staining was used as negative control and was negative in all of the studied cancerous and normal tissues.

B1: 13-5G6-1D3 rAb: recombinant antibody product of US28-13-5G6-1D3 produced in HEK293-F cells (antibody)
heavy: EVKLVESGGGLVQPGGSLRLACATSGFTFTDYYMSWVRQPPGKALEWLGFIRSKANGYTTEYSASVKGRFTISRDNSQSILYLQMNTLRSEDSATYYCARDERRTAWLAYWGQGTLVTVSAAKTTPPSVYPLAPGSAAQTNSMVTLGCLVKGYFPEPVTVTWNSGSLSSGVHTFPAVLQSDLYTLSSSVTVPSSTWPSETVTCNVAHPASSTKVDKKIVPRDCGCKPCICTVPEVSSVFIFPPKPKDVLTITLTPKVTCVVVDISKDDPEVQFSWFVDDVEVHTAQTQPREEQFNSTFRSVSELPIMHQDWLNGKEFKCRVNSAAFPAPIEKTISKTKGRPKAPQVYTIPPPKEQMAKDKVSLTCMITDFFPEDITVEWQWNGQPAENYKNTQPIMDTDGSYFIYSKLNVQKSNWEAGNTFTCSVLHEGLHNHHTEKSLSHSPGK
light: DVLMTQTPLSLPVSLGDQASISCRSSQSIVHSNGNTYLDWYLQKPGQSPKLLIYKVSNRFSGVPDRFSGSGSGTDFTLKISRVEAEDLGVYYCFQGSHVPTWTFGGGTKLEIKRADAAPTVSIFPPSSEQLTSGGASVVCFLNNFYPKDINVKWKIDGSERQNGVLNSWTDQDSKDSTYSMSSTLTLTKDEYERHNSYTCEATHKTSTSPIVKSFNRNEC
For B1, the “IHC staining of HCMV infected cells in lung tissue” value [1] was “strong cytoplasmic staining”.

B2: US28-13-5G6-1D3: monoclonal antibody against ECD3 of HCMV US28; VH SEQ ID NO: 12, VL SEQ ID NO: 18; rAb is the recombinant product (antibody, V domains shown)
VH: EVKLVESGGGLVQPGGSLRLACATSGFTFTDYYMSWVRQPPGKALEWLGFIRSKANGYTTEYSASVKGRFTISRDNSQSILYLQMNTLRSEDSATYYCARDERRTAWLAYWGQGTLVTVSA
VL: DVLMTQTPLSLPVSLGDQASISCRSSQSIVHSNGNTYLDWYLQKPGQSPKLLIYKVSNRFSGVPDRFSGSGSGTDFTLKISRVEAEDLGVYYCFQGSHVPTWTFGGGTKLEIK
modifications: Mature form of VH sequence of 1D3, without the leader sequence; Mature form of VL sequence of 1D3, without the leader sequence
notes: monoclonal antibody against ECD3 of HCMV US28; rAb is the recombinant product
For B2, the “staining of TNBC (n=7) and HER2 positive (n=11) metastases” value (breast cancer tissues; all samples) was “positive”, the “number of negative metastasis samples” value (breast cancer tissues; hormone receptor positive cancers, of 30 metastases) was 2 and the staining of metastases ([2]; All TNBC (n=8) and HER2 positive (n=11) metastases) was “positive”. The “samples positive for staining” value ([2]; Hepatocellular carcinomas) was 2/3, the “samples positive for staining” value ([2]; cervix cancer samples) was 2/3 and the “controls negative for staining” value ([2]; epithelial cells adjacent to colon adenocarcinoma) was 3/3. The “samples positive for staining” value ([2]; lung cancer samples) was 2/3, the “samples positive for staining” value ([2]; pancreas cancer samples) was 1/3 and the “number of samples with positive staining” value ([2]; rectum adenocarcinoma, 3 studied) was 3.

B3: 13-5G6-1D3: mouse monoclonal IgG1 kappa antibody against US28 ECD3; VH SEQ ID NO: 12, VL SEQ ID NO: 18 (antibody, V domains shown)
VH: B2 VH
VL: B2 VL
modifications: Mature form of VH sequence of 1D3, without the leader sequence; Mature form of VL sequence of 1D3, without the leader sequence
For B3, the IHC staining ([2]; human malignant pheochromocytoma tumor (HCMV positive control), FIG. 19 B) was “positive staining” and the “adjacent control breast tissues with no cytoplasmic staining” value ([2]; normal breast epithelial cells) was 10/10.
